Three molecules from PMC5058748, “ZNF224, Krüppel like zinc finger protein, induces cell growth and apoptosis-resistance by down-regulation of p21 and p53 via miR-663a” can be followed below.

Residue numbers refer to the chain shown, from its start.

The term Kd denotes the concentration at which binding is half-saturated.

B1: CAGCTTC hairpin oligo (dsDNA)
DNA 1: CCAAGAAGCTGAAAGGGAAAAACCCTTTCAGCTTCTTGG
DNA 2: CCAAGAAGCTGAAAGGGTTTTTCCCTTTCAGCTTCTTGG
B2: CAGCGTC hairpin oligo (dsDNA)
DNA 1: B1 DNA 1 with A7C, T33G
DNA 2: B1 DNA 2 with A7C, T33G
B3: GCAGCAA hairpin oligo (dsDNA)
DNA 1: CCAAGCAGCAAAAAGGGAAAAACCCTTTTTGCTGCTTGG
DNA 2: CCAAGCAGCAAAAAGGGTTTTTCCCTTTTTGCTGCTTGG

Chain of FLAG-ZNF224 (Q9NZL3 whole entry): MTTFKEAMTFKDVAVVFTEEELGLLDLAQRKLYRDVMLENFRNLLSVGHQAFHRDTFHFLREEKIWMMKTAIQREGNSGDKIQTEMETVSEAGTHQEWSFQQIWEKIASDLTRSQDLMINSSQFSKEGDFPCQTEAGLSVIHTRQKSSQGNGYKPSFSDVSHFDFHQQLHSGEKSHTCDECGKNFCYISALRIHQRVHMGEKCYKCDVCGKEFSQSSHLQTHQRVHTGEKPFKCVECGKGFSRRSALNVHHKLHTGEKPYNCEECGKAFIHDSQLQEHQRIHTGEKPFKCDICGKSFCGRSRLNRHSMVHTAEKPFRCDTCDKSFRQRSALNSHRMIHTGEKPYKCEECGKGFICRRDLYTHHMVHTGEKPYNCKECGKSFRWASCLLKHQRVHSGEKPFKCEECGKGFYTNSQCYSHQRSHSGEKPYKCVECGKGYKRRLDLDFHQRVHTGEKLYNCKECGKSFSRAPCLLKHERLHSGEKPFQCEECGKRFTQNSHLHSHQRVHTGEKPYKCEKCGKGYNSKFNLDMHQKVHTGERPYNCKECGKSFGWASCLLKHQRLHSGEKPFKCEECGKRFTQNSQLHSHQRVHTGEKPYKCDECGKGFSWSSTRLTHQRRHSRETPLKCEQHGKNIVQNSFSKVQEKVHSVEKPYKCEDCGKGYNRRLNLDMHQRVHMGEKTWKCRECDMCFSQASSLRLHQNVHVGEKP

This data set concerns the target FLAG-ZNF224 (UniProt Q9NZL3 1-707). In words: SPR; protein immobilized, oligo as analyte; SPR: 1x PBS, Reichert SR7500DC, CMDH chip, oligo 0-10 uM; pH and temperature not stated; ELISA buffer not in material. To be noted: protein: recombinant; tags: 3xFLAG; label: 5'-biotin (ELISA oligos); hairpin.
Regarding B1, the Kd turned out to be 1250 ± 60 nM.
As for B2, the figure is 2000 ± 100 nM.
Consider B3, for which the Kd turned out to be 420 ± 30 nM.
